Measured values: the RNAGym collection of RNA variant scans (doi:10.1093/molbev/msab373)

B1: Azoarcus group I ribozyme (parent)
chain: GUGCCUUGCGCCGGGAAACCACGCAAGGGAUGGUGUCAAAUUCGGCGAAACCUAAGCGCCCGCCCGGGCGUAUGGCAACGCCGAGCCAAGCUUCGGCGCCUGCGCCGAUGAAGGUGUAGAGACUAGACGGCACCCACCUAAGGCAAACGCUAUGGUGAAGGCAUAGUCCAGGGAGUGGCGAAAGUCACACAAACCGG

Variants of: B1
Experiment: reverse-splicing fitness (ratio to wild type); higher = more active; in vitro selection; Mg2+ level not given
In short: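 An in vitro group I ribozyme library with randomized positions was T7-transcribed and gel-purified. In triplicate, 10 pmol RNA in EPPS pH 7.5 was reacted with 50 pmoles of a 30-nt RNA substrate for 1 h at 37 °C across several added MgCl2 levels (1–48 mM), then stopped with EDTA. Products were reverse transcribed from a substrate-complementary primer, PCR-amplified and sequenced (HiSeq 4000). Fitness is a variant's read proportion after selection over that before, normalised to wild type.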

First: GUGCCUUGCGCCGGGAAACCACGCAAGGGAUGGUGUCAAAUUCGGCGAAACCUAAGCGCCCGCCCGGGCGUAUGGCAACGCGGAGCCAAGCUUCGGCGCCUGCGCCGAUGUAGGUGUAGAGACUAGACGGCACCCACCUAAGGCAAACGAUAUGGUGAAGGCAUAGUCUAGGGAGGGGCGAAAGUCACACAAACCGG
Second: GUGCCUUGCGCCGGGAAACCACGCAAGGGAUGGUGUCAAAUUCGGCGAAACCUAAGCGCCCGCCCGGGCGUAUGGCAACGCGGAGCCAAGCUUCGGCGCCUGCGCCGAUGUAGGUGUAGAGACUAGACGGCACCCACCUAAGGCAAACGAUAUGGUGAAGGCAUAGUCUAGGGAGAGGCGAAAGUCACACAAACCGG
The reverse-splicing fitness of the first is lower: 0.00776 for the first, 0.0148 for the second.

Compared with GUGCCUUGCGCCGGGAAACCACGCAAGGGAUGGUGUCAAAUUCGGCGAAACCUAAGCGCCCGCCCGGGCGUAUGGCAACGCGGAGCCAAGCUUCGGCGCCUGCGCCGAUGUAGGUGUAGAGACUAGACGGCACCCACCUAAGGCAAACGAUAUGGUGAAGGCAUAGUCUAGGGAGCGGCGAAAGUCACACAAACCGG, GUGCCUUGCGCCGGGAAACCACGCAAGGGAUGGUGUCAAAUUCGGCGAAACCUAAGCGCCCGCCCGGGCGUAUGGCAACGCGGAGCCAAGCUUCGGCGCCUGCGCCGAUGUAGGUGUAGAGACUAGACGGCACCCACCUAAGGCAAACGUUAUGGUGAAGGCAUAGUCAAGGGAGCGGCGAAAGUCACACAAACCGG is lower in reverse-splicing fitness: 0.0161 for the first, 0.0148 for the second.

Compared with GUGCCUUGCGCCGGGAAACCACGCAAGGGAUGGUGUCAAAUUCGGCGAAACCUAAGCGCCCGCCCGGGCGUAUGGCAACGCGGAGCCAAGCUUCGGCGCCUGCGCCGAUGUAGGUGUAGAGACUAGACGGCACCCACCUAAGGCAAACGUUAUGGUGAAGGCAUAGUCAAGGGAGGGGCGAAAGUCACACAAACCGG, GUGCCUUGCGCCGGGAAACCACGCAAGGGAUGGUGUCAAAUUCGGCGAAACCUAAGCGCCCGCCCGGGCGUAUGGCAACGCGGAGCCAAGCUUCGGCGCCUGCGCCGAUGUAGGUGUAGAGACUAGACGGCACCCACCUAAGGCAAACGUUAUGGUGAAGGCAUAGUCAAGGGAGAGGCGAAAGUCACACAAACCGG is higher in reverse-splicing fitness: 0.00647 for the first, 0.0188 for the second.

First: GUGCCUUGCGCCGGGAAACCACGCAAGGGAUGGUGUCAAAUUCGGCGAAACCUAAGCGCCCGCCCGGGCGUAUGGCAACGCGGAGCCAAGCUUCGGCGCCUGCGCCGAUGUAGGUGUAGAGACUAGACGGCACCCACCUAAGGCAAACGGUAUGGUGAAGGCAUAGUCUAGGGAGCGGCGAAAGUCACACAAACCGG
Second: GUGCCUUGCGCCGGGAAACCACGCAAGGGAUGGUGUCAAAUUCGGCGAAACCUAAGCGCCCGCCCGGGCGUAUGGCAACGCGGAGCCAAGCUUCGGCGCCUGCGCCGAUGUAGGUGUAGAGACUAGACGGCACCCACCUAAGGCAAACGGUAUGGUGAAGGCAUAGUCUAGGGAGGGGCGAAAGUCACACAAACCGG
The reverse-splicing fitness of the first is higher: 0.0129 for the first, 0.00728 for the second.

Going from GUGCCUUGCGCCGGGAAACCACGCAAGGGAUGGUGUCAAAUUCGGCGAAACCUAAGCGCCCGCCCGGGCGUAUGGCAACGCGGAGCCAAGCUUCGGCGCCUGCGCCGAUGUAGGUGUAGAGACUAGACGGCACCCACCUAAGGCAAACGGUAUGGUGAAGGCAUAGUCUAGGGAGAGGCGAAAGUCACACAAACCGG to GUGCCUUGCGCCGGGAAACCACGCAAGGGAUGGUGUCAAAUUCGGCGAAACCUAAGCGCCCGCCCGGGCGUAUGGCAACGCGGAGCCAAGCUUCGGCGCCUGCGCCGAUGUAGGUGUAGAGACUAGACGGCACCCACCUAAGGCAAACGGUAUGGUGAAGGCAUAGUCAAGGGAGAGGCGAAAGUCACACAAACCGG, the reverse-splicing fitness rises from 0.00863 to 0.011.

Compared with GUGCCUUGCGCCGGGAAACCACGCAAGGGAUGGUGUCAAAUUCGGCGAAACCUAAGCGCCCGCCCGGGCGUAUGGCAACGCGGAGCCAAGCUUCGGCGCCUGCGCCGAUGUAGGUGUAGAGACUAGACGGCACCCACCUAAGGCAAACGGUAUGGUGAAGGCAUAGUCAAGGGAGCGGCGAAAGUCACACAAACCGG, GUGCCUUGCGCCGGGAAACCACGCAAGGGAUGGUGUCAAAUUCGGCGAAACCUAAGCGCCCGCCCGGGCGUAUGGCAACGCGGAGCCAAGCUUCGGCGCCUGCGCCGAUGUAGGUGUAGAGACUAGACGGCACCCACCUAAGGCAAACGGUAUGGUGAAGGCAUAGUCAAGGGAGGGGCGAAAGUCACACAAACCGG is lower in reverse-splicing fitness: 0.0132 for the first, 0.00732 for the second.

Going from GUGCCUUGCGCCGGGAAACCACGCAAGGGAUGGUGUCAAAUUCGGCGAAACCUAAGCGCCCGCCCGGGCGUAUGGCAACGCGGAGCCAAGCUUCGGCGCCUGCGCCGAUGUAGGUGUAGAGACUAGACGGCACCCACCUAAGGCAAACGAUAUGGUGAAGGCAUAGUCCAGGGAGGGGCGAAAGUCACACAAACCGG to GUGCCUUGCGCCGGGAAACCACGCAAGGGAUGGUGUCAAAUUCGGCGAAACCUAAGCGCCCGCCCGGGCGUAUGGCAACGCGGAGCCAAGCUUCGGCGCCUGCGCCGAUGUAGGUGUAGAGACUAGACGGCACCCACCUAAGGCAAACGAUAUGGUGAAGGCAUAGUCCAGGGAGCGGCGAAAGUCACACAAACCGG, the reverse-splicing fitness rises from 0.0138 to 0.0357.

Variant GUGCCUUGCGCCGGGAAACCACGCAAGGGAUGGUGUCAAAUUCGGCGAAACCUAAGCGCCCGCCCGGGCGUAUGGCAACGCGGAGCCAAGCUUCGGCGCCUGCGCCGAUGUAGGUGUAGAGACUAGACGGCACCCACCUAAGGCAAACGAUAUGGUGAAGGCAUAGUCCAGGGAGAGGCGAAAGUCACACAAACCGG has a reverse-splicing fitness of 0.025.
